{"source": "IntAct's records for PubMed 19680263", "parents": {"B1": {"name": "Complement factor H (Homo sapiens), P08603 (parent)", "chain": "MRLLAKIICLMLWAICVAEDCNELPPRRNTEILTGSWSDQTYPEGTQAIYKCRPGYRSLGNVIMVCRKGEWVALNPLRKCQKRPCGHPGDTPFGTFTLTGGNVFEYGVKAVYTCNEGYQLLGEINYRECDTDGWTNDIPICEVVKCLPVTAPENGKIVSSAMEPDREYHFGQAVRFVCNSGYKIEGDEEMHCSDDGFWSKEKPKCVEISCKSPDVINGSPISQKIIYKENERFQYKCNMGYEYSERGDAVCTESGWRPLPSCEEKSCDNPYIPNGDYSPLRIKHRTGDEITYQCRNGFYPATRGNTAKCTSTGWIPAPRCTLKPCDYPDIKHGGLYHENMRRPYFPVAVGKYYSYYCDEHFETPSGSYWDHIHCTQDGWSPAVPCLRKCYFPYLENGYNQNYGRKFVQGKSIDVACHPGYALPKAQTTVTCMENGWSPTPRCIRVKTCSKSSIDIENGFISESQYTYALKEKAKYQCKLGYVTADGETSGSITCGKDGWSAQPTCIKSCDIPVFMNARTKNDFTWFKLNDTLDYECHDGYESNTGSTTGSIVCGYNGWSDLPICYERECELPKIDVHLVPDRKKDQYKVGEVLKFSCKPGFTIVGPNSVQCYHFGLSPDLPICKEQVQSCGPPPELLNGNVKEKTKEEYGHSEVVEYYCNPRFLMKGPNKIQCVDGEWTTLPVCIVEESTCGDIPELEHGWAQLSSPPYYYGDSVEFNCSESFTMIGHRSITCIHGVWTQLPQCVAIDKLKKCKSSNLIILEEHLKNKKEFDHNSNIRYRCRGKEGWIHTVCINGRWDPEVNCSMAQIQLCPPPPQIPNSHNMTTTLNYRDGEKVSVLCQENYLIQEGEEITCKDGRWQSIPLCVEKIPCSQPPQIEHGTINSSRSSQESYAHGTKLSYTCEGGFRISEENETTCYMGKWSSPPQCEGLPCKSPPEISHGVVAHMSDSYQYGEEVTYKCFEGFGIDGPAIAKCLGEKWSHPPSCIKTDCLSLPSFENAIPMGEKKDVYKAGEQVTYTCATYYKMDGASNVTCINSRWTGRPTCRDTSCVNPPTVQNAYIVSRQMSKYPSGERVRYQCRSPYEMFGDEEVMCLNGNWTEPPQCKDSTGKCGPPPPIDNGDITSFPLSVYAPASSVEYQCQNLYQLEGNKRITCRNGQWSEPPKCLHPCVISREIMENYNIALRWTAKQKLYSRTGESVEFVCKRGYRLSSRSHTLRTTCWDGKLEYPTCAKR", "partner": "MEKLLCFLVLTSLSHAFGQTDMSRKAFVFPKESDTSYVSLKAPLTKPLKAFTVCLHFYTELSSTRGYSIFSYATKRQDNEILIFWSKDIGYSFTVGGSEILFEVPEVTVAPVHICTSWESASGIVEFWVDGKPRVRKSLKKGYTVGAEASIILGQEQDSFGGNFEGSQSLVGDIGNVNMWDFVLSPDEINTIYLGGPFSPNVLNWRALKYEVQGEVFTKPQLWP"}}}
{"variants_of": "B1", "conditions": "with crp_human CRP"}
{"variant": "R1203E;R1206E;R1210S;K1230S;R1231A", "effect of a mutation on the interaction": "disrupting interaction strength"}
{"variants_of": "B1", "conditions": "with crp_human CRP", "remark": "another data set of the same source"}
{"variant": "R1203E;R1206E;R1210S;K1230S;R1231A", "effect of a mutation on the interaction": "disrupting interaction strength"}
{"variants_of": "B1", "conditions": "with crp_human CRP", "remark": "another data set of the same source"}
{"variant": "W1183L", "effect of a mutation on the interaction": "decreasing interaction strength"}
{"variant": "V1197A", "effect of a mutation on the interaction": "decreasing interaction strength"}
{"variant": "R1210C", "effect of a mutation on the interaction": "decreasing interaction strength"}
{"variant": "R1215G", "effect of a mutation on the interaction": "decreasing interaction strength"}
